Data as given in article PMC3653948, “PDZ Domain-Mediated Interactions of G Protein-Coupled Receptors with Postsynaptic Density Protein 95: Quantitative Characterization of Interactions” (PLoS ONE, 2013).

Legend:
PSD-95 PDZ1 (aa 61–151) [1] = target: PSD-95 PDZ1 (aa 61–151) (UniProt P78352); assay: SPR; PDZ domains immobilised by amine coupling on Sensor Chip CM5 (PDZ1, PDZ2) or CM4 (PDZ3); peptides injected 1 min, 1 min dissociation, 30 µl/min; […]; HBS-EP+ (10 mM HEPES pH 7.4, 150 mM NaCl, 3 mM EDTA, 0.05% Surfactant P-20)
PSD-95 PDZ2 (aa 155–249) [2] = target: PSD-95 PDZ2 (aa 155–249) (UniProt P78352); assay: as above
PSD-95 PDZ3 (aa 309–401) [3] = target: PSD-95 PDZ3 (aa 309–401) (UniProt P78352); assay: as above
PSD-95 PDZ1 (aa 61–151) [4] = target: PSD-95 PDZ1 (aa 61–151) (UniProt P78352); assay: fluorescence polarisation; competition: 25 nM Cy5-labeled probe and a constant concentration of PDZ protein corresponding to the K d of the probe, twofold dilution series of unlabeled peptide (typically 1–512 µM); 10 mM HEPES pH 7.4, 150 mM NaCl, 1% BSA; room temperature; K i calculated from the IC50
PSD-95 PDZ2 (aa 155–249) [5] = target: PSD-95 PDZ2 (aa 155–249) (UniProt P78352); assay: as above
PSD-95 PDZ3 (aa 309–401) [6] = target: PSD-95 PDZ3 (aa 309–401) (UniProt P78352); assay: as above

| koff (PSD-95 PDZ1 (aa 61–151) [1]) | koff (PSD-95 PDZ2 (aa 155–249) [2]) | koff (PSD-95 PDZ3 (aa 309–401) [3]) | Ki (PSD-95 PDZ1 (aa 61–151) [4]) | Ki (PSD-95 PDZ2 (aa 155–249) [5]) | Ki (PSD-95 PDZ3 (aa 309–401) [6]) | Substance |
| --- | --- | --- | --- | --- | --- | --- |
| > 1 s⁻¹ | > 1 s⁻¹ | > 1 s⁻¹ | 100 µM | 26 µM | 370 µM | 5-hydroxytryptamine receptor 2C (5-HTR2C) C-tail peptide, human |
|  |  |  | 160 µM | 46 µM | > 1000 µM | 5-hydroxytryptamine receptor 2A (5-HTR2A) C-tail peptide, human |
|  |  |  | 280 µM | 370 µM | 370 µM | chemokine receptor CXCR2 C-tail peptide, human |
|  |  |  | 270 µM | 90 µM | > 1000 µM | mouse somatostatin receptor 1 (mSSTR1) C-tail peptide |
|  |  |  | 430 µM | 120 µM | 360 µM | β1-adrenergic receptor (β1AR) C-tail peptide, human |
|  |  |  | 63 µM | 29 µM | 790 µM | BAI1 receptor C-tail peptide, human |
|  |  |  | 750 µM | 450 µM | 600 µM | human somatostatin receptor 4 (hSSTR4) C-tail peptide |
|  |  |  | 610 µM | > 1000 µM | 280 µM | somatostatin receptor 3 (SSTR3) C-tail peptide, human |
|  |  |  | 50 µM | 28 µM | 200 µM | human somatostatin receptor 1 (hSSTR1) C-tail peptide |
|  |  |  | > 1000 µM | 420 µM | > 1000 µM | mouse somatostatin receptor 4 (mSSTR4) C-tail peptide |
|  |  |  | 270 µM | 230 µM | > 1000 µM | neuropeptide Y receptor Y2 C-tail peptide, human |
|  |  |  | 620 µM | 230 µM | > 1000 µM | somatostatin receptor 2A (SSTR2A) C-tail peptide, human |
